In patent US20190218308A1 (INNATE PHARMA, published 2019):
Numbering of substitutions follows the chain as printed. Values belong to the binder of their own block, whether it stands above or below them.

Experiments:
CD39 mutant 15 [1] = target: T1, CD39 mutant 15 (human, UniProt P49961 1-510); experiment: flow cytometry, Hek-293T cells transfected with CD39 mutant 15 (panel M15), table under the panel; unstained (US) 8,98; antibody concentration not shown
T1 construct: Expressed on Hek-293T cells; also called M15
T1 chain: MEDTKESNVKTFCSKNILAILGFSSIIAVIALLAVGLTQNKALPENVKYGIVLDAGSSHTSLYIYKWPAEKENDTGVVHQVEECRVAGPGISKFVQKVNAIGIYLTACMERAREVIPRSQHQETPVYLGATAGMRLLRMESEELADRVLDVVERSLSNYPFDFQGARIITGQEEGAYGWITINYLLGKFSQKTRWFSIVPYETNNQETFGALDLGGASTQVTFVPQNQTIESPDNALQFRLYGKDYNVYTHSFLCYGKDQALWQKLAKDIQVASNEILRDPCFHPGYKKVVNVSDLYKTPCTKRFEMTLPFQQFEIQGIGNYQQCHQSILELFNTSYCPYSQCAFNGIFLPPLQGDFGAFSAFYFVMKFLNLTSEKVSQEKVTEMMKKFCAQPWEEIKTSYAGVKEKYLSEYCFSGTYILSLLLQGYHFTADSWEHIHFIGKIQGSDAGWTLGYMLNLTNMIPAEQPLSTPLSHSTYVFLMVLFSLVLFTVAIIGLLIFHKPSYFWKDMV
Description: (§1) Mutants were transfected in Hek-293T cells, as shown in the table 1, using numbering of SEQ ID NO: 2. […] Mutant 19 includes substitutions at residues R138, M139 and E142.
(§2) Mutants were transfected in Hek-293T cells, as shown in the table 1, using numbering of SEQ ID NO: 2. Dose-ranges of test antibodies (10-2.5-0.625-0.1563-0.0391-0.0098-0.0024-0.0006 μg/ml) are tested on the 20 generated mutants by flow cytometry.

CD39 mutant 15 [2] = target: T1, CD39 mutant 15; experiment: flow cytometry, Hek-293T cells transfected with CD39 mutant 15 (panel M15); antibody concentration not shown
CD39 mutant 5 [3] = target: T2, CD39 mutant 5 (human, UniProt P49961 1-510); experiment: flow cytometry, Hek-293T cells transfected with CD39 mutant 5 (panel M5), Comp-Alexa Fluor 647-A
T2 construct: Expressed on Hek-293T cells; also called M5
T2 chain: T1 chain with A87K, Q96A, N99A, A100E, A107D, E143A, R147E
Description: as §1, §2

CD39 mutant 19 [4] = target: T3, CD39 mutant 19 (human, UniProt P49961 1-510); experiment: flow cytometry, Hek-293T cells transfected with CD39 mutant 19 (panel M19), Comp-Alexa Fluor 647-A
T3 construct: Expressed on Hek-293T cells; also called M19
T3 chain: T1 chain with A87K, A100E, A107D, R138A, M139A, E142K

CD39 mutant 5 [5] = target: T2, CD39 mutant 5; experiment: flow cytometry, Hek-293T cells transfected with CD39 mutant 5 (panel M5); antibody concentration not shown
CD39 mutant 19 [6] = target: T3, CD39 mutant 19; experiment: flow cytometry, Hek-293T cells transfected with CD39 mutant 19 (panel M19); antibody concentration not shown
Description: as §1, §2

CD39 mutant 15 [7] = target: T1, CD39 mutant 15; experiment: flow cytometry, Hek-293T cells expressing mutant 15
CD39 mutant 11 = target: T4, CD39 mutant 11 (human, UniProt P49961 1-510); experiment: flow cytometry, Hek-293T cells expressing mutant 11
T4 construct: Expressed on Hek-293T cells
T4 sequence: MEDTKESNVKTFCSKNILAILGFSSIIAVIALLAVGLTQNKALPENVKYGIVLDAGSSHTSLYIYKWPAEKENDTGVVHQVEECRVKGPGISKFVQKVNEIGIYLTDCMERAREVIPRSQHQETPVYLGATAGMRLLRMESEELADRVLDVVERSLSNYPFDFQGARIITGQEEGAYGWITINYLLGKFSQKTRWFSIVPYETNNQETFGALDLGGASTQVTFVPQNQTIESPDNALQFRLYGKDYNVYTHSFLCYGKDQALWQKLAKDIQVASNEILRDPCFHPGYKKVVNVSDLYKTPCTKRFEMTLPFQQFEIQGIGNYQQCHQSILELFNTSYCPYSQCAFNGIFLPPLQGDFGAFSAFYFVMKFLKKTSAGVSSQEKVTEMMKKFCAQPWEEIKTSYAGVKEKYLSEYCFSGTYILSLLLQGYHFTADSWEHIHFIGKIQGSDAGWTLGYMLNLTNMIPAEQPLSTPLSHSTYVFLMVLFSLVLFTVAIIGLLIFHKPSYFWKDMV

CD39 mutant 5 [8] = target: T2, CD39 mutant 5; experiment: flow cytometry, Hek-293T cells expressing mutant 5
CD39 mutant 19 [9] = target: T3, CD39 mutant 19; experiment: flow cytometry, Hek-293T cells expressing mutant 19

- Median : Comp-Alexa Fluor 647-A (CD39 mutant 15 [1]): 35.9
- binding result (CD39 mutant 15 [2]): no binding
- binding result (CD39 mutant 5 [3]): binds
- binding result (CD39 mutant 19 [4]): binds
B1: antibody I-396 (antibody, V domains shown)
VH: EVQLQQSGAELVKPGASVKLSCIVSGFNIKDTYINWVKQRPEQGLEWIGRIDPANGNTKYDPKFQGKATMTSDTSSNTAYLHLSSLTSDDSAVYYCARWGYDDEEADYFDSWGQGTTLTVSS
VL: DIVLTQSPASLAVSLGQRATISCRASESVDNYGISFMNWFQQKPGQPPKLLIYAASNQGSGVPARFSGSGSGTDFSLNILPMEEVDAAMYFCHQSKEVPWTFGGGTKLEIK
notes: Hybridoma antibody purified with protein A

- Median : Comp-Alexa Fluor 647-A (CD39 mutant 15 [1]): 5750
- binding result (CD39 mutant 5 [5]): no binding
- binding result (CD39 mutant 19 [6]): no binding
B2: antibody I-395 (antibody, V domains shown)
VH: EVQLQQSGPELVKPGASVRMSCKASGYTFTDYNMHWVKKNHGKGLEWIGYINPNNGGTTYNQKFKGKATLTVNTSSKTAYMELRSLTSEDSAVYYCTRGGTRFASWGQGTLVTVSA
VL: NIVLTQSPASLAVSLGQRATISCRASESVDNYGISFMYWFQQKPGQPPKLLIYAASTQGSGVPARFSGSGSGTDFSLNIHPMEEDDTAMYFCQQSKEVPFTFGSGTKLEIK
notes: as for B1

- binding result (CD39 mutant 15 [7]): binds
- binding result (CD39 mutant 5 [8]): binds
- binding result (CD39 mutant 19 [9]): binds
B3: antibody I-399 (antibody, V domains shown)
VH: PVQLQQPGAEVVMPGASVKLSCKASGYTFTSFWMNWMRQRPGQGLEWIGEIDPSDFYTNSNQRFKGKATLTVDKSSSTAYMQLSSLTSEDSAVYFCARGDFGWYFDVWGTGTSVTVSS
VL: EIVLTQSPTTMTSSPGEKITFTCSASSSINSNYLHWYQQKPGFSPKLLIYRTSNLASGVPTRFSGSGSGTSYSLTIGTMEAEDVATYYCQQGSSLPRTFGGGTKLEIK
notes: as for B1
- binding result (CD39 mutant 11): no binding (tested: dose range up to 10 µg/ml)
